Test results: PMC2175248

Target: myc–E4orf4 (adenovirus 2 (Ad2))
Experiment: co-IP

## v-src (from UniProt P00524 1-526) (enzyme)
  percent of v-src of the P2 fraction recovered in myc–E4orf4 immune complexes: < 10%
